Assay results published in patent US20100047243A1 (published 2010).

Biological target: T1, recombinant cynomolgus macaque IGF-1R (IGF-1R-Fc fusion protein of Example 4) (cynomolgus macaque (Macaca fascicularis))
T1 construct: also called Cynomolgus IGF-1R; cyno IGF-1R
Experiment: Biacore T100, antibody captured on Protein A, recombinant cynomolgus IGF-1R analyte (256-16 nM), HBS-EP, 37 C
Experimental: Protein A was immobilised on a CM5 surface by primary amine coupling in accordance with the manufacturers standard protocols. Antibodies against IGF-1R were captured on this surface and after a period of stabilisation recombinant human or cynomolgus IGF-1R was injected over this captured surface. […] Data was analysed using the 1:1 model inherent to the Biacore machine, the work was carried out on the T100 using HBS-EP running buffer at 37° C.

T1 sequence (chain, as listed by the source limits assumed): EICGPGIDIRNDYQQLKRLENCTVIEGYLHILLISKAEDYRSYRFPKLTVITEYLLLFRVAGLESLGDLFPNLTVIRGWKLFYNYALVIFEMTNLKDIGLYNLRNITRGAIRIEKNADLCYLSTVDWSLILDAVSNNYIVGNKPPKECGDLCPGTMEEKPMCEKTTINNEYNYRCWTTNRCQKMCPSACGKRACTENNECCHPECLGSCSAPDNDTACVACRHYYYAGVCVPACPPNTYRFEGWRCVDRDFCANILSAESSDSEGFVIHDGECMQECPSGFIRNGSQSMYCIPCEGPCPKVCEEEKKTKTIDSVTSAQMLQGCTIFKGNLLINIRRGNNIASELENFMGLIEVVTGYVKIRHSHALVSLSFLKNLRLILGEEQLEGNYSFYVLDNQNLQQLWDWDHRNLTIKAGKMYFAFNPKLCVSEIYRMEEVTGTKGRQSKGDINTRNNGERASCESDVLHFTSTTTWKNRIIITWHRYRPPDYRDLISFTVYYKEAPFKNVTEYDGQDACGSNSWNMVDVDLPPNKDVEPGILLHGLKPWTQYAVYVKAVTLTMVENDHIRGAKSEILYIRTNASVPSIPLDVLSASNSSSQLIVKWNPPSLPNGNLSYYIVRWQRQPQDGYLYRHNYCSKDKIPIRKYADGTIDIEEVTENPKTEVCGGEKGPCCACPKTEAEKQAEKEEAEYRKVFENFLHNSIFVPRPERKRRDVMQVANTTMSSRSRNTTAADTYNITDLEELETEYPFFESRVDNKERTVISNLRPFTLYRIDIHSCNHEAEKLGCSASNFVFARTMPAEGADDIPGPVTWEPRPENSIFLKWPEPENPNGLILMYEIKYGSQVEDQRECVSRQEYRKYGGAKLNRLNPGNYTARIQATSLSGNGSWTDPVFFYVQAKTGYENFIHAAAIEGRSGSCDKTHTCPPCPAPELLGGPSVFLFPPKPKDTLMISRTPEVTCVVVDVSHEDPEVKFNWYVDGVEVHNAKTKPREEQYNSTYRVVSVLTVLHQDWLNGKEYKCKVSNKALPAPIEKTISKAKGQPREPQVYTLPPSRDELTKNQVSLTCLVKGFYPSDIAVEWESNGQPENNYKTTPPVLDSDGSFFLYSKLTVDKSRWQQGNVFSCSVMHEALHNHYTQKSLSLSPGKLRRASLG

Kd: 0.19 nM
B1: 6E11 chimeric antibody (antibody, human IgG1, kappa, V domains shown)
VH: EVQLQQSGPELVKPGASVRISCKASGYAFTDYYMNWVKQSHGKSLEWVANINPNNGGTNYNQKFKDKATLTVDKSSNTAYMELRSLTSEDTAVYYCARWILYYGRSKWYFDVWGTGTLVTVSS
VL: DVLMTQTPLSLPVSLGDHASISCRSSQSIVQSNGDTYLEWYLQKPGQSPKLLIYRISNRFSGVPDRFSGSGSGTDFTLKISRVEAEDLGVYYCFQGSHVPYTFGGGTKLEIKR
notes: Murine 6E11 variable domains on human IgG1/kappa wild type constant regions; also called 6E11 chimera; 6E11 chimaera
